Legend:
Conditions in all cases: protein: recombinant;recombinant, tags: His-TEV tag, removed by TEV protease;His-TEV tag, chain copies: 2;2, label: 3' Tamra~Q on FL1013, blunt
[1] = target: T1, DNA gyrase subunit A (GyrA);DNA gyrase subunit B (GyrB) (Mycobacterium …, UniProt P9WG47;P9WG45 1-838;1-675, |); assay: EMSA; 2 mM Mg2+, no crowding agent
[2] = target: T1, DNA gyrase subunit A (GyrA);DNA gyrase …; assay: EMSA; 2 mM Mg2+, 5% PEG400
[3] = target: T1, DNA gyrase subunit A (GyrA);DNA gyrase …; assay: EMSA; 2 mM Mg2+, 2 M glycine betaine

T1 sequence (P9WG47 whole entry, chain 1 of 2): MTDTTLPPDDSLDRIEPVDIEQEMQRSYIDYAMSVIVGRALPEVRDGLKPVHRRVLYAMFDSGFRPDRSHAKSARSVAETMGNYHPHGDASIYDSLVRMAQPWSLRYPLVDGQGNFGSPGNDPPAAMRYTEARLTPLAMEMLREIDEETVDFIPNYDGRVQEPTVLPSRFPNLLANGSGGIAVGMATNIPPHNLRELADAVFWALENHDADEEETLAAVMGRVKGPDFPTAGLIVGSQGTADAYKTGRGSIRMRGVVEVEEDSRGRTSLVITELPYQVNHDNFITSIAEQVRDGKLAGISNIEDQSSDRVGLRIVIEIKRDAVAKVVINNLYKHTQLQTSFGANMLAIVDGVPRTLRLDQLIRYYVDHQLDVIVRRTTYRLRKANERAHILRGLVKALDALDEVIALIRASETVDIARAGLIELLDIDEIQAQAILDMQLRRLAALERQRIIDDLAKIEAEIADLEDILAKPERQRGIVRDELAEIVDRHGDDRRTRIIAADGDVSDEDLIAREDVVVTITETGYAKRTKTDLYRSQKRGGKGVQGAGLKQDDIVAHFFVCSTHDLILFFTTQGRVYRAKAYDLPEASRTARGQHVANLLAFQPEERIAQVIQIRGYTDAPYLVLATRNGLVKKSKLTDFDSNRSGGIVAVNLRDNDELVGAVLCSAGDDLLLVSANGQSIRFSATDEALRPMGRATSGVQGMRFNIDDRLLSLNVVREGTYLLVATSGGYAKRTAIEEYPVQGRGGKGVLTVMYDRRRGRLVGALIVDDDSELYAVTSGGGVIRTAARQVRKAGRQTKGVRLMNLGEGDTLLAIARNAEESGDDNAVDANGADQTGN
T1 sequence (P9WG45 whole entry, chain 2 of 2): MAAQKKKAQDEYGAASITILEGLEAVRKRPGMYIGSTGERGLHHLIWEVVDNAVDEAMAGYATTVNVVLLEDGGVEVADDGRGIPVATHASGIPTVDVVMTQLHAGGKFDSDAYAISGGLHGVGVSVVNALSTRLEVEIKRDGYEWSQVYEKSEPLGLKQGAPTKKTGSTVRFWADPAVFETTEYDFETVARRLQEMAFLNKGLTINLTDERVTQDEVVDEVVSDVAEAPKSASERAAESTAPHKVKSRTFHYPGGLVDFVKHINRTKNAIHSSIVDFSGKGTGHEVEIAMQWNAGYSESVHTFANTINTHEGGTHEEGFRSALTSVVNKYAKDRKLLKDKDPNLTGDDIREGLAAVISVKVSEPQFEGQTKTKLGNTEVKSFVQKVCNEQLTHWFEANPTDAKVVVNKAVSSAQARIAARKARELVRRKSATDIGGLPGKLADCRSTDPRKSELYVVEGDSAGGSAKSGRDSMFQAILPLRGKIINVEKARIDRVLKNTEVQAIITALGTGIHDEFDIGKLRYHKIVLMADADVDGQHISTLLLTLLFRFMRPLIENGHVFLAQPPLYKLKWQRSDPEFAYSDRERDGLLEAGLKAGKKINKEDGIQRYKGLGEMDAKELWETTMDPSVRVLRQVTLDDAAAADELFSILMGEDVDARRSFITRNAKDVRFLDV

B1: 50 bp DNA oligomer (FL1013/FL1014) (dsDNA)
DNA 1: TCAGTCCGACATCGGTCATGAATGACTATGCACGTAAACGAGATGCCAAC
DNA 2: GTTGGCATCTCGTTTACGTGCATAGTCATTCATGACCGATGTCGGACTGA
Kd [1]: 0.094 ± 0.004 µM | Kd [2]: 0.06 ± 0.024 µM | Kd [3]: 0.085 ± 0.006 µM

Reference: publication PMC10731242, “Macromolecular crowding potently stimulates DNA supercoiling activity of Mycobacterium tuberculosis DNA gyrase”
